Assay results from patent US20230071422A1 (BEIJING WISDOMAB BIOTECHNOLOGY, published 2023).
Substitutions are numbered along the chain they refer to. One block for each binder: values may come before it.

Tests used:
[1] = biological target: T1, extracellular region of human CD3E with C-terminal His tag (hCD3E-his) (human (Homo sapiens), UniProt P07766 23-126); test: SPR, Biacore X100; antibody captured by anti-human IgG (Fc), hCD3E-his as analyte, 1:1 model
T1 construct: Recombinant, expressed in HEK293 cells
Experimental: (§1) The chip surface was regenerated by injecting 3M MgCl₂ solution at 10 μL/min for 30 s. Association rates (Kₒₙ) and dissociation rates (Koff) were calculated from association and dissociation sensorgrams fitted by a 1:1 binding model using Biacore X100 evaluation software version 2.0.1. The dissociation equilibrium constant (KD) was calculated as the ratio Koff/Kₒₙ.

[2] = biological target: T2, extracellular region of cynomolgus monkey CD3E with C-terminal His tag (mfCD3E-his) (cynomolgus monkey (Macaca fascicularis), UniProt Q95LI5 22-117); test: SPR, Biacore X100; antibody captured by anti-human IgG (Fc), mfCD3E-his as analyte, 1:1 model
T2 construct: Recombinant, expressed in HEK293 cells
T2 sequence: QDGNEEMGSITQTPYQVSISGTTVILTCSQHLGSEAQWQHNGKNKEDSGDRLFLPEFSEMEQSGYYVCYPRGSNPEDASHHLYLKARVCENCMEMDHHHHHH
Experimental: as §1

[3] = biological target: T3, extracellular region of human CD123 subtype 1 with C-terminal His tag (hCD123-SP1-his) (human (Homo sapiens), UniProt P26951 19-305); test: phage display, solid-phase screening on hCD123-SP1-His, three rounds
T3 construct: Recombinant, expressed in HEK293 cells
T3 sequence: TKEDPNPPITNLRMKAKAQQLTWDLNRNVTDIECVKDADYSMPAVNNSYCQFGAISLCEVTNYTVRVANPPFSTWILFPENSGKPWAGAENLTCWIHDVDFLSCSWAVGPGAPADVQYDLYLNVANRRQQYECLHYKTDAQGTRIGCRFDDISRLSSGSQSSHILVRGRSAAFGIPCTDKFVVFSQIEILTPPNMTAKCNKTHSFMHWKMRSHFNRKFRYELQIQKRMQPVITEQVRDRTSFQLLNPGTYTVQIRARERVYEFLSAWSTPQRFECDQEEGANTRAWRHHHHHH

[4] = biological target: T4, CD123 on the surface of CD123-positive cells (KG-1a, MV-4-11) (human, UniProt P26951 19-378); test: flow cytometry titration on MV-4-11 cells, goat anti-human IgG-FITC secondary antibody
T4 construct: whole, on cells; Endogenous CD123 on KG-1a (human acute myeloid leukemia) and MV-4-11 (human acute monocytic leukemia) cells; also called cell surface CD123 antigen; CD123 on the surface of MV-4-11 cells
Experimental: (§2) MV-4-11 cells at the logarithmic phase of growth were used and resuspended to 2×10⁶ cells/well with PBS buffer containing 1% BSA after centrifugation. MV-4-11 cells were plated in a 96-well V-bottom plate at 100 μL/well, and the supernatant was removed after centrifugation. […] The antibodies were added to the wells containing cells and incubated at 4° C. for 1 hour. Then, the plate was washed three times with 200 μL PBS buffer. The goat anti-human IgG-FITC secondary antibody (ZF-0308, ZSGB-BIO) was added to the wells (100 μL/well), and incubated at 4° C. for 30 minutes in the dark. Then, the cells were washed three times with 200 μL of PBS buffer, and resuspended in 100 μL of PBS buffer to detect FITC channel by flow cytometer (ACEA, Novocyte).

[5] = biological target: T3, extracellular region of human CD123 …; test: SPR, Biacore X100; antibody captured by anti-human IgG (Fc), hCD123-SP1-his as analyte, 1:1 model
Experimental: (§3) The affinity of anti-CD123 antibodies was determined by surface plasmon resonance using Biacore X100. Related reagents and consumables such as Amino Conjugation Kit (BR-1000-50), Human Antibody Capture Kit (BR-1008-39), CM5 Chip (BR100012) and 10×HBS-EP (BR100669) buffer with pH 7.4 were all purchased from GE healthcare. According to the instructions in the kits, 1-Ethyl-3-(3-dimethylaminopropyl) carbodiimide hydrochloride (EDC) and N-Hydroxysuccinimide (NHS) was used to activate the surface of the carboxylated CM5 chip, and the anti-human IgG (Fc) antibody (capture antibody) was diluted to 25 μg/mL with 10 mM, pH5.0 sodium acetate, followed by an injection with a flow rate at 10 μL/min to achieve a coupling volume of approximately 10,000 response units (RU). Following the injection of the capture antibody, 1 M ethanolamine was injected to block unreacted groups. […] The chip surface was regenerated by injecting 3M MgCl₂ solution at 10 μL/min for 30 s. Association rates (Kₒₙ) and dissociation rates (Koff) were calculated from association and dissociation sensorgrams fitted by a 1:1 binding model using Biacore X100 evaluation software version 2.0.1. The dissociation equilibrium constant (KD) was calculated as the ratio Koff/Kₒₙ.

[6] = biological target: T3, extracellular region of human CD123 …; test: as above; remark: listed apart in the source
Experimental: as §3

[7] = biological target: T4, CD123 on the surface of CD123-positive …; test: flow cytometry on MV-4-11 cells, titration from 100 nM, goat anti-human IgG-FITC; MV-4-11 cells, flow cytometry titration (apparent KD)
Experimental: as §2, with “MV-4-11” for “MV-4-11 cells at the logarithmic phase of growth were used and resuspended to 2×10⁶ cells/well with PBS buffer containing 1% BSA after centrifugation. MV-4-11”

[8] = biological target: T1, extracellular region of human CD3E with …; test: SPR, Biacore X100; antibody captured by anti-human IgG (Fc) on CM5, hCD3E-his as analyte, 1:1 model, 25 C
Experimental: as §1

[9] = biological target: T3, extracellular region of human CD123 …; test: SPR, Biacore X100; antibody captured by anti-human IgG (Fc) on CM5, hCD123-SP1-his as analyte, 1:1 model, 25 C
Experimental: as §3

T1 sequence (P07766 other isoform, or with tags, fused parts or gaps limits assumed): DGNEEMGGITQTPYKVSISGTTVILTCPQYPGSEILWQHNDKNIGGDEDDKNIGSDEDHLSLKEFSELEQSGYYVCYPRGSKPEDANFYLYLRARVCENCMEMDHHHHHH

B3: anti-CD123 monoclonal antibody H7A3-h2-m5+L27E5 (antibody, V domains shown)
VH: QVQLVQSGAEVKKPGASVKVSCKASGYTFTSYDVSWVRQAPGQRLEWMGWVYPVDGSTKFNEKFKGRVTLTADRSSSTAYMELSSLRSEDTAVYYCARLTYGDFGDAMDYWGQGTLVTVSS
VL: DIVMTQTPLSLSVTPGQPASISCKSSQSLVHSNDNTYLTWYLQKPGQSPQLLIYKVSNRFSGVPDRFSGSGSGTDFTLKISRVEAEDVGVYYCGQGTQYPFTFGQGTKLEIK
notes: Expressed as a whole antibody of human IgG1 with the common light chain L27E5; also called H7A3 humanized version H7A3-h2-m5
- EC50 (read off the curve) [4]: ~3 nM
- Kd [5]: 0.22 nM
- koff [5]: 5.14e-05 s⁻¹
- kon [5]: 234000 M⁻¹ s⁻¹
- Kd [6]: 0.244 nM
- koff [6]: 7.67e-05 s⁻¹
- kon [6]: 314000 M⁻¹ s⁻¹
- Kd [7]: 3.1 nM

B4: S8F3VH+L27E5 (antibody, V domains shown)
VH: QVQLQQSGAELAKPGASVKISCKASGYTFTSYDVSWVKQRPGQGLEWIGWVYPVDGSTKFNEKFKGKATLTADRSSSTAYMQLTSLTSEDSAVYFCARLRYGNYGDAMDDWGQGTSVTVSA
VL: B3 VL
notes: built from the label (S8F3VH heavy chain variable region with the L27E5 light chain)
- Kd [5]: 3.32 nM
- koff [5]: 0.000146 s⁻¹
- kon [5]: 43800 M⁻¹ s⁻¹

B5: anti-CD3E monoclonal antibody H3B8+L27E5 (antibody, V domains shown)
VH: EVQLVESGGGLVQPGGSLRLSCAASGFTFSNAWMHWVRQAPGKGLEWVGQIKDKSNNYATYYADAVKGRFTISRDDSKNSLYLQMNSLKTEDTAVYYCRYVHYGVRFFYTMDVWGQGTTVTVSS
VL: B3 VL
notes: captured by an anti-human IgG (Fc) antibody in SPR; also called WM03-C6 humanized monoclonal antibody
- Kd [1]: 12.7 nM
- koff [1]: 0.000711 s⁻¹
- kon [1]: 56100 M⁻¹ s⁻¹
- Kd [2]: 5.26 nM
- koff [2]: 0.000649 s⁻¹
- kon [2]: 123000 M⁻¹ s⁻¹
- Kd [8]: 47.6 nM
- koff [8]: 0.000993 s⁻¹
- kon [8]: 20800 M⁻¹ s⁻¹

B7: monoclonal antibody WM03-C6 (antibody, V domains shown)
VH: EVQLVETGENLVQPGKSLRLTCATSGFSFSNAWMHWIRQSPEKQLEWVAQIKDKSNNYATYYAESVNGRFTISRDDSKSSIYLHMDNLKEEDSAIYYCRYVHYGVRFFYTMDVWGQGTSVTVSS
VL: DVVMTQTPVSLSVSLGDQVSISCRPSQSLVHNNGNTYLSWYLQKPGQSPHPLIYKVSNRFSGISDRFSGSGSGTDFTLKISRVEPDDLGVYYCGQGTQYPFTFGSGTKLEIK
notes: also called rat monoclonal antibody WM03-C6; 20E5-F10 of WO 2016/116626 A1
- Kd [8]: 10.6 nM
- koff [8]: 0.000288 s⁻¹
- kon [8]: 27200 M⁻¹ s⁻¹

The next lines start with the values.

- Kd [1]: 0.65 nM
- Kd [2]: 0.935 nM
B1: control bispecific antibody Xmab14045 (bispecific antibody)
heavy: QVQLQQSGAEVKKPGASVKVSCKASGYTFTDYYMKWVKQSHGKSLEWMGDIIPSNGATFYNQKFKGKATLTVDRSTSTAYMELSSLRSEDTAVYYCARSHLLRASWFAYWGQGTLVTVSSASTKGPSVFPLAPSSKSTSGGTAALGCLVKDYFPEPVTVSWNSGALTSGVHTFPAVLQSSGLYSLSSVVTVPSSSLGTQTYICNVNHKPSDTKVDKKVEPKSCDKTHTCPPCPAPPVAGPSVFLFPPKPKDTLMISRTPEVTCVVVDVKHEDPEVKFNWYVDGVEVHNAKTKPREEEYNSTYRVVSVLTVLHQDWLNGKEYKCKVSNKALPAPIEKTISKAKGQPREPQVYTLPPSREEMTKNQVSLTCDVSGFYPSDIAVEWESDGQPENNYKTTPPVLDSDGSFFLYSKLTVDKSRWEQGDVFSCSVMHEALHNHYTQKSLSLSPGK
scFv: not shown
light: not shown

- binding result [3]: binds
B2: anti-human CD123 single chain fragment variable S8F3 (scFv)
scFv: QVQLQQSGAELAKPGASVKISCKASGYTFTSYDVSWVKQRPGQGLEWIGWVYPVDGSTKFNEKFKGKATLTADRSSSTAYMQLTSLTSEDSAVYFCARLRYGNYGDAMDDWGQGTSVTVSAGGGGSGGGGSGGGGSDVVMTQTPVSLSVSLGDQVSISCRPSQSLVHNNGNTYLSWYLQKPGQSPHPLIYKVSNRFSGISDRFSGSGSGTDFTLKISRVEPDDLGVYYCGQGTQYPFTFGSGTKLEIK

- Kd [5]: 0.246 nM
- koff [5]: 6.64e-05 s⁻¹
- kon [5]: 270000 M⁻¹ s⁻¹
- Kd [6]: 0.226 nM
- koff [6]: 6.89e-05 s⁻¹
- kon [6]: 305000 M⁻¹ s⁻¹
B6: H7A3+L27E5 (antibody, V domains shown)
VH: B4 VH with R100T, N103D, Y104F, D110Y
VL: B3 VL
notes: Whole antibody: H7A3 variable region fused to a human heavy chain constant region, combined with the L27E5 light chain; also called S8F3 heavy chain mutant H7A3

- Kd [9]: 8.03 nM
- koff [9]: 0.00365 s⁻¹
- kon [9]: 455000 M⁻¹ s⁻¹
B8: S8F3VH+C6VK (antibody, V domains shown)
VH: B4 VH
VL: B7 VL
notes: Whole antibody: variable regions fused to a human heavy chain constant region and a light chain constant region; also called recombinant anti-CD123 monoclonal antibody
